Results as given in patent US20160002311A1 (Novo Nordisk, published 2016).
Like-named read-outs stand apart in the source and are kept apart here. Numbered stars: 1 amine (or outer) side, 2 acyl side, 3 side chain; on linkers, the order of the positions; unused ones are H or OH. Square brackets hold non-standard residues; d marks the D form. Side chains are listed from the residue outwards. Ends that are not written are not given here. * marks the point of attachment. C18 diacid = O=C(O)CCCCCCCCCCCCCCCCC(=O)*; γGlu = O=C(O)[C@H](CCC(=O)[*:2])N[*:1]; Orn = NCCC[C@H](N)C(=O)O; AEEA = NCCOCCOCC(=O)O

B1: N^ε24-([2-[2-[2-[[2-[2-[2-[[(4S)-5-hydroxy-4-[(18-hydroxy-18-oxooctadecanoyl)amino]-5-oxopentanoyl]amino]ethoxy]ethoxy]acetyl]amino]ethoxy]ethoxy]acetyl])[D-Ser … (peptide)
peptide: H[dS]QGTFTSDYSKYLDEQAARDFVK([AEEA-AEEA-γGlu-C18 diacid])WLLNT-NH2
modifications: N-terminus assumed
SMILES: CC(C)C[C@H](NC(=O)[C@H](Cc1ccc(O)cc1)NC(=O)[C@H](CCCCN)NC(=O)[C@H](CO)NC(=O)[C@H](Cc1ccc(O)cc1)NC(=O)[C@H](CC(=O)O)NC(=O)[C@H](CO)NC(=O)[C@@H](NC(=O)[C@H](Cc1ccccc1)NC(=O)[C@@H](NC(=O)CNC(=O)[C@H](CCC(N)=O)NC(=O)[C@@H](CO)NC(=O)[C@@H](N)Cc1c[nH]cn1)[C@@H](C)O)[C@@H](C)O)C(=O)N[C@@H](CC(=O)O)C(=O)N[C@@H](CCC(=O)O)C(=O)N[C@@H](CCC(N)=O)C(=O)N[C@@H](C)C(=O)N[C@@H](C)C(=O)N[C@@H](CCCNC(=N)N)C(=O)N[C@@H](CC(=O)O)C(=O)N[C@@H](Cc1ccccc1)C(=O)N[C@H](C(=O)N[C@@H](CCCCNC(=O)COCCOCCNC(=O)COCCOCCNC(=O)CC[C@H](NC(=O)CCCCCCCCCCCCCCCCC(=O)O)C(=O)O)C(=O)N[C@@H](Cc1c[nH]c2ccccc12)C(=O)N[C@@H](CC(C)C)C(=O)N[C@@H](CC(C)C)C(=O)N[C@@H](CC(N)=O)C(=O)N[C@H](C(N)=O)[C@@H](C)O)C(C)C

Tests used:
glucagon receptor [1] = biological target: T1, glucagon receptor (UniProt P47871 26-477, limits assumed); test: cell-based or functional assay
glucagon receptor [2] = biological target: T1, glucagon receptor; test: cell-based or functional assay; remark: listed apart in the source

T1 sequence (P47871 26-477 limits assumed): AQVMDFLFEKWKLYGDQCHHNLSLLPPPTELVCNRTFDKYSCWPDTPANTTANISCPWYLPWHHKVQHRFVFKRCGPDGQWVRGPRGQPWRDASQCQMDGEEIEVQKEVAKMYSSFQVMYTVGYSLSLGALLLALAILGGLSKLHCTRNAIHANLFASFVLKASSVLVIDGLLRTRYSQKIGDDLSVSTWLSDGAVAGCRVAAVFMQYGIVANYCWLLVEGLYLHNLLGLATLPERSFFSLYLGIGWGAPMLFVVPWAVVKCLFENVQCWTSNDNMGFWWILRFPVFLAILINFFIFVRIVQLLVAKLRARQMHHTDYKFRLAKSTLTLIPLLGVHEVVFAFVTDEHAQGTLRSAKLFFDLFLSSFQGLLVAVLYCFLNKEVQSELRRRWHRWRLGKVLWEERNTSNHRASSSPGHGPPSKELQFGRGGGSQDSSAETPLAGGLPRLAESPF

| Assay (I) Glucagon [EC50] (glucagon receptor [1]) [nM] | Assay (I) Glucagon [EC50] (glucagon receptor [2]) [nM] | Binder |
| --- | --- | --- |
| 0.051 | – | HSQGTFTSDYSKYLDSKKAQEFVK([AEEA-AEEA-γGlu-C18 diacid])WLLDT |
| 0.053 | – | HSQGTFTSDYSKYLDSKKAQEFVQWLLNK([AEEA-AEEA-γGlu-C18 diacid]) |
| – | 0.137 | B1 |
| 0.036 | – | HSQGTFTSDYSKYLDSKKAQEFV[Orn]([AEEA-AEEA-γGlu-C18 diacid])WLLST |
| 0.003 | – | HSQGTFTSDYSKYLDSKKAQEFVQWLLNT [[K^17,K^18, E^21, L^27] Glucagon] |
